Test results taken from the supplement of paper PMC7877785.
± gives the uncertainty stated by the source.

Experiment: self-splicing fitness, log relative to wild type (ln ratio); higher = more splicing; Tetrahymena group I intron in knt gene, E. coli kanamycin selection, DiMSum; sequences stand for … in CUCUCU…GGAGGGAAAAGUUAUCAGGCAUGCACCUGGUAGCUAGUCUUUAAACCAAUAGAUUGCAUCGGUUUAAAAGGCAAGACCGUCAAAUUGCGGGAAAGGGGUCAACAGCCGUUCAGUACCAAGUCUCAGGGGAAACUUUGAGAUGGCCUUGCAAAGGGUAUGGUAAUAAGCUGACGGACAUGGUCCUAACCACGCAGCCAAGUCCUAAGUCAACAGAUCUUCUGUUGAUAUGGAUGCAGUUCACAGACUAAAUGUCGGUCGGGGAAGAUGUAUUCUUCUCAUAAGAUAUAGUCGGACCUCUCCUUAAUGGGAGCUAGCGGAUGAAGUGAUGCAACACUGGAGCCGCUGGGAACUAAUUUGUAUGCGAAAGUAUAUUGAUUAGUUUUGGAGUACUCGUGGUCG
Method in brief: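 The eight P1ex-region nucleotides of an intron in the knt kanamycin-resistance gene on pET-22b(+) were all randomised and the library put into E. coli BL21(DE3). Six replicate transformations were grown overnight at 37°C or 30°C on LB agar with or without 25 μg/mL kanamycin, together with 100 μg/mL carbenicillin, 50 μM IPTG and 0.2% rhamnose. Colonies were pooled and amplicon-sequenced on an Illumina HiSeq 2500. Fitness from DiMSum is the error-weighted combination of wild-type-normalised replicate fold changes, kanamycin over none.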

| Sequence | self-splicing fitness (ln) (30 °C) | self-splicing fitness (ln) (37 °C) |
| --- | --- | --- |
| ACAAAGCAAUAUUACGCGCG | -1.11 ± 0.078 | -0.453 ± 0.099 |
| ACCUAGCAAUAUUACGUUGU | -1.79 ± 0.066 | -1.12 ± 0.082 |
| GAAAAGCAAUAUUACGACGC | -0.132 ± 0.069 | 0.493 ± 0.093 |
| UUAGAGCAAUAUUACGGUAU | -3.84 ± 0.28 | -1.36 ± 0.19 |
| GACCAGCAAUAUUACGUCCA | -1.75 ± 0.095 | -0.749 ± 0.095 |
| AUUGAGCAAUAUUACGAGCA | -3.01 ± 0.47 | -1.93 ± 0.42 |
| UGUAAGCAAUAUUACGGUCC | -2.16 ± 0.14 | -1.29 ± 0.14 |
| GUUGAGCAAUAUUACGUUGA | -3.13 ± 0.29 | -2.9 ± 0.33 |
| UCGCAGCAAUAUUACGGCCC | – | -2.41 ± 0.41 |
| GGUGAGCAAUAUUACGCCGU | -2.63 ± 0.42 | – |
| AAAUAGCAAUAUUACGAGAU | -2.1 ± 0.16 | -1.47 ± 0.21 |
| GGCCAGCAAUAUUACGUGAC | -2.05 ± 0.09 | -1.16 ± 0.11 |
| UACAAGCAAUAUUACGCAAC | – | -2.36 ± 0.3 |
| UCGGAGCAAUAUUACGGGUG | -3.03 ± 0.24 | -2.94 ± 0.2 |
| UCAUAGCAAUAUUACGAGAU | -3.85 ± 0.21 | -3.29 ± 0.26 |
| AUGUAGCAAUAUUACGUGCA | -0.921 ± 0.13 | -1.01 ± 0.12 |
| AACUAGCAAUAUUACGACAC | -1.04 ± 0.085 | -0.404 ± 0.11 |
| AUCAAGCAAUAUUACGCUGA | -2.51 ± 0.13 | -1.46 ± 0.12 |
| UUGAAGCAAUAUUACGGCCG | 0.53 ± 0.14 | 0.318 ± 0.22 |
| UCGUAGCAAUAUUACGCAAA | -3.4 ± 0.31 | -1.09 ± 0.31 |
| AAUUAGCAAUAUUACGUAAU | -1.92 ± 0.12 | -0.218 ± 0.15 |

| Sequence | self-splicing fitness (ln) (30 °C) | self-splicing fitness (ln) (37 °C) |
| --- | --- | --- |
| ACGGAGCAAUAUUACGUUAG | -2.74 ± 0.18 | -2.5 ± 0.33 |
| UUCAAGCAAUAUUACGGUAC | -2.8 ± 0.2 | -2.71 ± 0.36 |
| GUGCAGCAAUAUUACGGAUC | 0.0925 ± 0.13 | 0.198 ± 0.14 |
| GUCGAGCAAUAUUACGAUGU | -0.956 ± 0.059 | -0.601 ± 0.084 |
| CAAAAGCAAUAUUACGGGGC | -3.66 ± 0.26 | -3.02 ± 0.23 |
| AUACAGCAAUAUUACGACAG | -2.15 ± 0.14 | -2.03 ± 0.15 |
| UCGGAGCAAUAUUACGAGCG | -2.48 ± 0.23 | -0.586 ± 0.23 |
| UGAUAGCAAUAUUACGAGCA | -0.12 ± 0.094 | -0.0253 ± 0.14 |
| GGGCAGCAAUAUUACGCCAU | -1.69 ± 0.12 | -1.21 ± 0.13 |
| AGAAAGCAAUAUUACGUCGG | -1.37 ± 0.088 | -1.04 ± 0.11 |
| CACGAGCAAUAUUACGCUAA | -2.95 ± 0.34 | -2.75 ± 0.22 |
| GGUCAGCAAUAUUACGUUUG | -2.61 ± 0.11 | -2.38 ± 0.15 |
| GCCAAGCAAUAUUACGUGAU | -0.879 ± 0.053 | 0.385 ± 0.07 |
| AAUAAGCAAUAUUACGUAUU | -3.58 ± 0.17 | -2.22 ± 0.15 |
| GAAGAGCAAUAUUACGCGUC | -2.98 ± 0.42 | -2.5 ± 0.48 |
| AGUCAGCAAUAUUACGUAAG | -1.61 ± 0.1 | -0.51 ± 0.11 |
| CCUAAGCAAUAUUACGCGAA | -2.23 ± 0.22 | -2.61 ± 0.29 |
| AGACAGCAAUAUUACGGAGA | -3.65 ± 0.18 | -2.55 ± 0.29 |
| GGCAAGCAAUAUUACGGGAC | -2.46 ± 0.13 | -0.918 ± 0.1 |
| AAUAAGCAAUAUUACGGUAA | -1.73 ± 0.16 | -1.03 ± 0.11 |
| UAAAAGCAAUAUUACGCACG | -0.983 ± 0.079 | -0.0988 ± 0.1 |

| Sequence | self-splicing fitness (ln) (30 °C) | self-splicing fitness (ln) (37 °C) |
| --- | --- | --- |
| AAUAAGCAAUAUUACGAGAG | -2.47 ± 0.14 | -2.01 ± 0.2 |
| AGACAGCAAUAUUACGUUGG | -1.95 ± 0.094 | -1.99 ± 0.14 |
| ACCGAGCAAUAUUACGGGAU | -3.29 ± 0.13 | -2.5 ± 0.15 |
| GGGGAGCAAUAUUACGGUUU | -1.27 ± 0.24 | -0.456 ± 0.29 |
| CCCAAGCAAUAUUACGGAGA | – | -1.03 ± 0.17 |
| UAGCAGCAAUAUUACGUCCG | -0.746 ± 0.055 | 0.357 ± 0.08 |
| CGUGAGCAAUAUUACGCGAU | -2.75 ± 0.23 | -1.35 ± 0.24 |
| CGUGAGCAAUAUUACGUCGA | -1.75 ± 0.29 | -3.3 ± 0.3 |
| GCACAGCAAUAUUACGACGU | -0.591 ± 0.073 | -0.0751 ± 0.088 |
| CCCGAGCAAUAUUACGCUGU | -4.16 ± 0.31 | -2.62 ± 0.27 |
| ACACAGCAAUAUUACGGUAC | -4.03 ± 0.23 | -2.03 ± 0.14 |
| CUAUAGCAAUAUUACGCAAU | -3.66 ± 0.24 | -1.58 ± 0.21 |
| GUUAAGCAAUAUUACGUUAU | -1.62 ± 0.12 | -0.968 ± 0.13 |
| AAGAAGCAAUAUUACGUAGU | -2.52 ± 0.16 | -1.14 ± 0.15 |
| CAAGAGCAAUAUUACGCUGC | -3.4 ± 0.41 | -2.01 ± 0.24 |
| GUCCAGCAAUAUUACGCCAU | -2.78 ± 0.15 | -1.48 ± 0.14 |
| CUUGAGCAAUAUUACGGCGU | -3.95 ± 0.34 | -2.76 ± 0.26 |
| UAGAAGCAAUAUUACGCGCG | -0.301 ± 0.12 | -0.204 ± 0.13 |
| UAGGAGCAAUAUUACGCGUU | -4.38 ± 0.24 | -1.37 ± 0.14 |
